Source: paper PMC5681435, “Differential Regulation of G1 CDK Complexes by the Hsp90-Cdc37 Chaperone System” (Cell Reports, 2017)
“And” between values parts separate entries of the source, which are not always exact repeats. Identical values can stand only once. “Also recorded” adds a separate entry of the source.

Key:
CDK6 = molecular target: T1, CDK6 (Homo sapiens, UniProt Q00534); experiment: SPR binding to immobilized GSTCDK6; details: for Kd: GSTCDK6 captured on chip, 4 °C
T1 construct: Full length human CDK4 and CDK6 with an N-terminal; made in house; host or cells: Sf9 insect cells (baculovirus, MultiBac)

CDK4 = molecular target: T2, CDK4 (Homo sapiens, UniProt P11802); experiment: SPR binding to immobilized GSTCDK4; details: for Binding to CDK4 by SPR (in words): GSTCDK4 captured on chip
T2 construct: Full length human CDK4 and CDK6 with an N-terminal; made in house; host or cells: Sf9 insect cells (baculovirus, MultiBac)

[1] = molecular target: T3, CDK6-Cdc37 and CDK6-Cdc37-SfHsp90 complexes (Homo sapiens, UniProt Q00534); experiment: Pull-down with Avi-tagged bait from CDK6-Cdc37 and CDK6-Cdc37-SfHsp90 complexes assembled in insect cells; format: binding; details: 3-fold molar excess of complex, 4 °C
T3 construct: Full length human CDK4 and CDK6 with an N-terminal; made in house; host or cells: Sf9 insect cells (co-expression, baculovirus)
Protocol: exchange chromatography (HiTrap Q, GE Healthcare). Protein concentrations were determined by NanoDrop2000 UV-Vis Spectrophotometer (Thermo Scientific) or using a Shimadzu UV1800 spectrophotometer. A representative SDS-polyacrylamide gel stained with silver is shown in Figure S4 to illustrate the purity of the GSTCDK4 and GSTCDK6 […]
Avi-tagged proteins (Cdc37, p16INK4a, p16INK4a mutants, Kcyclin and Vcyclin) were biotinylated to provide an affinity tag for the streptavidin-tagged XL665 dye. A substantial amount of biotinylated protein was purified from the recombinant E. coli cells as a result of endogenous BirA activity. Proteins were further modified by incubating 40 µM of the Avi-tagged protein with 10 µg BirA in biotinylation buffer (50 mM Bicine pH 8.3, 10 mM ATP, 10 mM MgOAc, 50 µM d-biotin) at 30°C for 60 minutes. […] The extent of protein biotinylation was monitored by pull downs using High Capacity NeutrAvidin® Agarose Resin (Thermo […]
To assemble the various complexes, 15 µg of Cdc37 was mixed with a molar equivalent of CDK6, and incubated for 1hour at 4 °C. […] The reactions were stopped by addition of 2 x LDS buffer and analysed by SDS-PAGE and subsequent western blotting using an anti-phosphorylated S780 antibody […]
Homogenous time-resolved fluorescence (HTRF) […]

CDK4-cyclin D1 = system: CDK4-cyclin D1; parameters: method as in Koh et al., 1995; details: ref Koh et al., 1995; cited from earlier work
[2] = Differential scanning fluorimetry (DSF) melting temperature; format: physicochemical; details: for Tm: 5 µM protein
G1 progression = system: G1 progression; parameters: method as in Koh et al., 1995; details: ref Koh et al., 1995; cited from earlier work
CDK4-Cdc37 complex = molecular target: T4, CDK4-Cdc37 complex (Homo sapiens, UniProt P11802); format: binding; details: HTRF competition, 8 nM GSTCDK4, 150 nM C-Avi Cdc37
T4 construct: Full length human CDK4 and CDK6 with an N-terminal; made in house; host or cells: GSTCDK4: Sf9 insect cells; Cdc37: E. coli
T4 sequence (P11802 whole entry, one chain of several): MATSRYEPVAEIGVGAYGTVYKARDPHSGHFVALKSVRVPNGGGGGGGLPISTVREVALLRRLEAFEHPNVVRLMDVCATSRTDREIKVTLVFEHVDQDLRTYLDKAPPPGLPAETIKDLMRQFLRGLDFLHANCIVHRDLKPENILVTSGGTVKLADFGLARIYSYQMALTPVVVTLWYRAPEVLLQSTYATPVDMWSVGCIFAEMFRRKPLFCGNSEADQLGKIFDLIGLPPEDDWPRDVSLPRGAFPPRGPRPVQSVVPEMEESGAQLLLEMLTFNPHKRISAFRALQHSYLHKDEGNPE

T2 sequence (P11802 whole entry): as the sequence (P11802 whole entry, one chain of several) above
T1 sequence (Q00534 whole entry): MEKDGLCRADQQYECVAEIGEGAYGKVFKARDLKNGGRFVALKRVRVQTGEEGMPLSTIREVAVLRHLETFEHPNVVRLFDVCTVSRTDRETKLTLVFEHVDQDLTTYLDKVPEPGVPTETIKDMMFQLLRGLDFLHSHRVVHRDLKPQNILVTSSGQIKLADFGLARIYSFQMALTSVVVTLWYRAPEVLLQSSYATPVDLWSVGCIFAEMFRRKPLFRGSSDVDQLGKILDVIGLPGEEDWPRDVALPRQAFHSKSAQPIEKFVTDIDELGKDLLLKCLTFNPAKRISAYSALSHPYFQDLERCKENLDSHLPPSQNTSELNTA
T3 sequence (Q00534 whole entry, one chain of several): as the sequence (Q00534 whole entry) above

B1: Vcyclin: viral D-type cyclin from Herpesvirus saimiri (protein)
chain: MADSPNRLNRAKIDSTTMKDPRVLNNLKLRELLLPKFTSLWEIQTEVTVDNRTILLTWMHLLCESFELDKSVFPLSVSILDRYLCKKQGTKKTLQKIGAACVLIGSKIRTVKPMTVSKLTYLSCDCFTNLELINQEKDILEALKWDTEAVLATDFLIPLCNALKIPEDLWPQLYEAASTTICKALIQPNIALLSPGLICAGGLLTTIETDNTNCRPWTCYLEDLSSILNFSTNTVRTVKDQVSEAFSLYDLEIL
CDK6
  Kd: 0.016 ± 0.013 nM
CDK4
  Binding to CDK4 by SPR (in words): the data quality precluded calculation of a Kd

B2: Kcyclin: viral D-type cyclin from Kaposi’s sarcoma-associated herpesvirus (protein)
chain: MATANNPPSGLLDPTLCEDRIFYNILEIEPRFLTSDSVFGTFQQSLTSHMRKLLGTWMFSVCQEYNLEPNVVALALNLLDRLLLIKQVSKEHFQKTGSACLLVASKLRSLTPISTSSLCYAAADSFSRQELIDQEKELLEKLAWRTEAVLATDVTSFLLLKLLGGSQHLDFWHHEVNTLITKALVDPKTGSLPASIISAAGCALLVPANVIPQDTHSGGVVPQLASILGCDVSVLQAAVEQILTSVSDFDLRILDSY
modifications: biotin (on the Avi tag); left off: Avi tag, end not stated, kept
notes: viral D-type cyclin from Kaposi’s sarcoma-associated herpesvirus
[1]
  Displacement of CDK6 from CDK6-Cdc37 and CDK6-Cdc37-SfHsp90 (pull-down): able to displace CDK6; also recorded: could extract CDK6

B3: p16D84N: p16INK4a mutant in which D84 is mutated to an asparagine (protein)
chain: MEPAAGSSMEPSADWLATAAARGRVEEVRALLEAGALPNAPNSYGRRPIQVMMMGSARVAELLLLHGAEPNCADPATLTRPVHNAAREGFLDTLVVLHRAGARLDVRDAWGRLPVDLAEELGHRDVARYLRAAAGGTRGSNHARIDAAEGPSDIPD
CDK4-cyclin D1
  Inhibition of CDK4-cyclin D1 kinase activity: as effectively as wild-type p16INK4a
CDK6
  Kd: 60 nM
[2]
  Tm: 45.1 (±1.9) °C
[2]; listed as D84N
  Tm: 45.1 °C
G1 progression
  Inhibition of G1 progression: modestly less effective
CDK4-Cdc37 complex
  Displacement of Cdc37 from CDK4-Cdc37 complex (in words): unable to displace CDK4 or CDK6 from Cdc37
CDK4
  Binding to CDK4 by SPR (in words): binding could be detected but not quantified

B4: p16M53I: p16INK4a mutant in which M53 is mutated to an isoleucine (protein)
chain: MEPAAGSSMEPSADWLATAAARGRVEEVRALLEAGALPNAPNSYGRRPIQVMIMGSARVAELLLLHGAEPNCADPATLTRPVHDAAREGFLDTLVVLHRAGARLDVRDAWGRLPVDLAEELGHRDVARYLRAAAGGTRGSNHARIDAAEGPSDIPD
CDK6
  Higher rate of dissociation from CDK6 compared with wild-type p16INK4a: approximately 10 fold
[2]
  ΔTm (versus p16INK4a): −4.9 (±2.33) °C
  Tm: 42.7 (±0.47) °C
[2]; listed as M53I
  Tm: 42.7 °C
CDK4-Cdc37 complex
  Displacement of Cdc37 from CDK4-Cdc37 complex (in words): ineffective
CDK4
  Binding to CDK4 by SPR (in words): binding could be detected but not quantified
CDK4; enhanced koff rate toward CDK4
  Reduction in the strength of the interaction with CDK4 versus wild-type p16INK4a: > 10^6 fold

B5: p16D108N: p16INK4a mutant, D108 mutated to an asparagine (protein)
chain: MEPAAGSSMEPSADWLATAAARGRVEEVRALLEAGALPNAPNSYGRRPIQVMMMGSARVAELLLLHGAEPNCADPATLTRPVHDAAREGFLDTLVVLHRAGARLDVRNAWGRLPVDLAEELGHRDVARYLRAAAGGTRGSNHARIDAAEGPSDIPD
[2]
  ΔTm (versus p16INK4a): −10.5 (±1.29) °C
  Tm: 36.4 °C and 36.4 (±3.1) °C
CDK4-Cdc37 complex
  Displacement of Cdc37 from CDK4-Cdc37 complex (in words): only a modest reduction in activity

B6: p16M53E: p16INK4a M53E mutant (protein)
chain: MEPAAGSSMEPSADWLATAAARGRVEEVRALLEAGALPNAPNSYGRRPIQVMEMGSARVAELLLLHGAEPNCADPATLTRPVHDAAREGFLDTLVVLHRAGARLDVRDAWGRLPVDLAEELGHRDVARYLRAAAGGTRGSNHARIDAAEGPSDIPD
[2]
  ΔTm (versus p16INK4a): −4.6 (±1.66) °C
  Tm: 43.2 (±0.38) °C
